Results taken from paper doi:10.1101/2020.05.04.077941 (bioRxiv, 2020).

Molecular target: purified human recombinant HGF (human, UniProt P14210 32-728)
Assay: far-Western, overlay or dot blot

Chain of purified human recombinant HGF (P14210 32-728): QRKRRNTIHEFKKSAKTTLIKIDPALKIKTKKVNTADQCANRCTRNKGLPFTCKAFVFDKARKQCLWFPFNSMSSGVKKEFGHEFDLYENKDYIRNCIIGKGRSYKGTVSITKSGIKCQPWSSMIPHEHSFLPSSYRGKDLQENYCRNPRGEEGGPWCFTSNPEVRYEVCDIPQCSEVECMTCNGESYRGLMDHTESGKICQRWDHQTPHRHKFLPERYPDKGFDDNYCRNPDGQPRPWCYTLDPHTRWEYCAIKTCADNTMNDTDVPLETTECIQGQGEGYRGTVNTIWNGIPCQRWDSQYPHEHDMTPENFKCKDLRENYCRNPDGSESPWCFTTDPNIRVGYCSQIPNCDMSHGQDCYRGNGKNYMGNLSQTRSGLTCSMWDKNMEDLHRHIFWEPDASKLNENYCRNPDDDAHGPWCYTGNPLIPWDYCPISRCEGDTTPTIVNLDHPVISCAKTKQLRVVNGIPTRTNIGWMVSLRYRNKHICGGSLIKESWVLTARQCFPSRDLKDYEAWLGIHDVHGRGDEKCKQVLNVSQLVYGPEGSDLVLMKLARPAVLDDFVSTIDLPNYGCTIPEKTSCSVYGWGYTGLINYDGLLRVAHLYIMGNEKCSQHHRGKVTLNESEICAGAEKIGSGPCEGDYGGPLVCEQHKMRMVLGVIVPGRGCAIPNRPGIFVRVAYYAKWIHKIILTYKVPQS

| Binder | binding result |
| --- | --- |
| QEGERVVFTCQATANPEIL [NEPH1-P1 peptide] | binds |
| PDITILLSGQTISDISANVNEGSQQKL [NEPHRIN-P1 peptide] | binds |
